Reference: publication PMC3985815

Assays:
Test in all cases: purified protein
purified protein [1] = substrate: Nc1ncnc2c1ncn2[C@@H]1O[C@H](COP(=O)(O)O[C@H]2[C@@H](O)[C@H](n3cnc4c(N)ncnc43)O[C@@H]2COP(=O)(O)O)[C@@H](O)[C@H]1O; details: 50 mM HEPES, 250 mM KCl, 5.0 mM MgCl2, pH 7.5
purified protein [2] = substrate: Nc1ncnc2c1ncn2[C@@H]1O[C@H](COP(=O)(O)O)[C@@H](OP(=O)(O)O)[C@H]1O; details: 25 mM HEPES, 250 mM KCl, pH 7.5, 30 °C
purified protein [3] = substrate: Nc1ccn([C@H]2C[C@H](OP(=O)(O)O)[C@@H](COP(=O)(O)O)O2)c(=O)n1; details: 25 mM HEPES, 250 mM KCl, pH 7.5, 30 °C
purified protein [4] = substrate: CNc1ncnc2c1ncn2[C@@H]1O[C@H](COP(=O)(O)O)[C@@H](OP(=O)(O)O)[C@H]1O; details: 25 mM HEPES, 250 mM KCl, pH 7.5, 30 °C
purified protein [5] = substrate: Nc1ncnc2c1ncn2[C@H]1C[C@H](OP(=O)(O)O)[C@@H](COP(=O)(O)O)O1; details: 25 mM HEPES, 250 mM KCl, pH 7.5, 30 °C
purified protein [6] = substrate: O=c1[nH]cnc2c1ncn2[C@H]1C[C@H](OP(=O)(O)O)[C@@H](COP(=O)(O)O)O1; details: 25 mM HEPES, 250 mM KCl, pH 7.5, 30 °C
purified protein [7] = substrate: O=c1ccn([C@H]2C[C@H](OP(=O)(O)O)[C@@H](COP(=O)(O)O)O2)c(=O)[nH]1; details: 25 mM HEPES, 250 mM KCl, pH 7.5, 30 °C
purified protein [8] = substrate: Nc1nc2c(ncn2[C@H]2C[C@H](OP(=O)(O)O)[C@@H](COP(=O)(O)O)O2)c(=O)[nH]1; details: 25 mM HEPES, 250 mM KCl, pH 7.5, 30 °C
purified protein [9] = substrate: Cc1cn([C@H]2C[C@H](OP(=O)(O)O)[C@@H](COP(=O)(O)O)O2)c(=O)[nH]c1=O; details: 25 mM HEPES, 250 mM KCl, pH 7.5, 30 °C

B1: Cv1693 (Chromobacterium violaceum ATCC 12472) (protein)
chain: MANIDLHFHSRTSDGALTPTEVIDRAAARAPALLALTDHDCTGGLAEAAAAAARRGIPFLNGVEVSVSWGRHTVHIVGLGIDPAEPALAAGLKSIREGRLERARQMGASLEAAGIAGCFDGAMRWCDNPEMISRTHFARHLVDSGAVKDMRTVFRKYLTPGKPGYVSHQWASLEDAVGWIVGAGGMAVIAHPGRYDMGRTLIERLILDFQAAGGQGIEVASGSHSLDDMHKFALHADRHGLYASSGSDFHAPGEGGRDVGHTEDLPPICRPIWRELEARILRPAD
Which results are given for B1?
Km (purified protein [1]): 1.6 ± 0.2 µM; kcat (purified protein [1]): 0.05 ± 0.01 s⁻¹; kcat/Km (purified protein [1]): 32000 ± 3000 M⁻¹ s⁻¹; Km (purified protein [2]): 15.5 ± 2.4 µM; kcat (purified protein [2]): 22 ± 1 s⁻¹; kcat/Km (purified protein [2]): 1.4e+06 ± 200000 M⁻¹ s⁻¹; Km (purified protein [3]): 26 ± 3 µM; kcat (purified protein [3]): 9.4 ± 0.3 s⁻¹; kcat/Km (purified protein [3]): 360000 ± 50000 M⁻¹ s⁻¹; Km (purified protein [4]): 5.4 ± 1.0 µM; kcat (purified protein [4]): 11.6 ± 0.4 s⁻¹; kcat/Km (purified protein [4]): 2.1e+06 ± 400000 M⁻¹ s⁻¹; Km (purified protein [5]): 10.2 ± 0.9 µM; kcat (purified protein [5]): 7.1 ± 0.2 s⁻¹; kcat/Km (purified protein [5]): 700000 ± 60000 M⁻¹ s⁻¹; Km (purified protein [6]): 22 ± 3 µM; kcat (purified protein [6]): 4.3 ± 0.2 s⁻¹; kcat/Km (purified protein [6]): 190000 ± 30000 M⁻¹ s⁻¹; Km (purified protein [7]): 29 ± 4 µM; kcat (purified protein [7]): 5.2 ± 0.2 s⁻¹; kcat/Km (purified protein [7]): 180000 ± 20000 M⁻¹ s⁻¹; Km (purified protein [8]): 5.2 ± 0.4 µM; kcat (purified protein [8]): 4.2 ± 0.1 s⁻¹; kcat/Km (purified protein [8]): 790000 ± 60000 M⁻¹ s⁻¹; Km (purified protein [9]): 9.3 ± 1.0 µM; kcat (purified protein [9]): 3.3 ± 0.1 s⁻¹; kcat/Km (purified protein [9]): 360000 ± 40000 M⁻¹ s⁻¹
